Measurements taken from patent EP4682169A1 (Gracell Biotechnologies (Shanghai) Co., Ltd., dated 2026).
Values joined by “and” are separate entries in the source; they are usually repeats but may differ in a detail not shown here. Identical values can stand only once.

Tests used:
[1] = target: T1, Claudin18.2 recombinant protein (His tag) (UniProt P56856-2 1-261, limits assumed); test: ELISA, coated antigen; upper end, tied by Table 3 to 1-hIgG1Fc on Claudin 18.2-his (196 nM)
T1 construct: also called Claudin18.2-his antigen; not shown: His tag

Claudin 18.2 VLP [2] = target: T2, Claudin 18.2 VLP (UniProt P56856 1-261); test: ELISA, coated antigen 200 ng/well; antibody 3.333 ug/mL
T2 construct: Antigen coated on ELISA plates, 200 ng/well; source and construct not described; also called Claudin18.2-VLP protein; Claudin18.2 VLP antigen

[3] = target: T1, Claudin18.2 recombinant protein (His …); test: as above
Claudin 18.2 VLP [4] = target: T2, Claudin 18.2 VLP; test: ELISA, coated antigen 200 ng/well; antibody 0 ug/mL (blank well, background)
[5] = target: T1, Claudin18.2 recombinant protein (His …); test: as above
Claudin 18.2 VLP [6] = target: T2, Claudin 18.2 VLP; test: ELISA, coated antigen 200 ng/well; antibody 0.123 ug/mL
[7] = target: T1, Claudin18.2 recombinant protein (His …); test: as above
Claudin 18.2 VLP [8] = target: T2, Claudin 18.2 VLP; test: ELISA, coated antigen 200 ng/well; antibody 0.014 ug/mL
[9] = target: T1, Claudin18.2 recombinant protein (His …); test: as above
Claudin 18.2 VLP [10] = target: T2, Claudin 18.2 VLP; test: ELISA, coated antigen 200 ng/well; antibody 0.041 ug/mL
[11] = target: T1, Claudin18.2 recombinant protein (His …); test: as above
Claudin 18.2 VLP [12] = target: T2, Claudin 18.2 VLP; test: ELISA, coated antigen 200 ng/well; antibody 1.111 ug/mL
[13] = target: T1, Claudin18.2 recombinant protein (His …); test: as above
Claudin 18.2 VLP [14] = target: T2, Claudin 18.2 VLP; test: ELISA, coated antigen 200 ng/well; antibody 100 ug/mL (so in the source)
[15] = target: T1, Claudin18.2 recombinant protein (His …); test: as above
Claudin 18.2 VLP [16] = target: T2, Claudin 18.2 VLP; test: ELISA, coated antigen 200 ng/well; antibody 0.37 ug/mL
[17] = target: T1, Claudin18.2 recombinant protein (His …); test: as above
Claudin 18.2 VLP [18] = target: T2, Claudin 18.2 VLP; test: ELISA, coated antigen 200 ng/well
[19] = target: T1, Claudin18.2 recombinant protein (His …); test: ELISA, coated antigen 200 ng/well

B1: 1-hIgG1Fc (Fc fusion)
chain: EVQLVGSGGGLVQPGGSLRLSCAASGSILNLMTTGWYRQAPGKQRDLVATITFGGTTNYADSVKGRFTISRDKSKNTAYLQMDNLKPEDTAVYFCYADVIVGFQDRRVAWDAGTQVTVSS
notes: VHH-hIgG1Fc recombinant antibody; also called 1-hlgG1Fc; VHH-hIgG1Fc recombinant antibody of clone 1; not shown: human IgG1 Fc (hIgG1Fc)
- EC50 [1]: 200 nM
- absorbance at 450 nm (Claudin 18.2 VLP [2]): 2.13
- absorbance at 450 nm [3]: 1.08
- absorbance at 450 nm (Claudin 18.2 VLP [4]): 0.275
- absorbance at 450 nm [5]: 0.06
- absorbance at 450 nm (Claudin 18.2 VLP [6]): 0.293
- absorbance at 450 nm [7]: 0.1
- absorbance at 450 nm (Claudin 18.2 VLP [8]): 0.282
- absorbance at 450 nm [9]: 0.066
- absorbance at 450 nm (Claudin 18.2 VLP [10]): 0.271
- absorbance at 450 nm [11]: 0.07
- absorbance at 450 nm (Claudin 18.2 VLP [12]): 1.35
- absorbance at 450 nm [13]: 0.473
- absorbance at 450 nm (Claudin 18.2 VLP [14]): 2.66
- absorbance at 450 nm [15]: 2.36
- absorbance at 450 nm (Claudin 18.2 VLP [16]): 0.585
- absorbance at 450 nm [17]: 0.216
- EC50 (Claudin 18.2 VLP [18]): 1.46 µg/mL and 18.3 nM
- EC50 [19]: 15.7 µg/mL and 196 nM
